# Several values for one entry are separate records, joined by “and”; a condition that tells them apart may be missing. Equal values may be shown once.
# B1: ABDN-CP-DOX (conjugate)
# chain: LAEAKVLANRELDKYGVSDYYKNLINNAKTVEGVKALIDEILAALPVPGAGVPGAGVPGAGVPGAGVPGAGVPGAGVPGAGVPGAGVPGAGVPGAGVPGAGVPGAGVPGAGVPGAGVPGAGVPGAGVPGAGVPGAGVPGAGVPGAGVPGAGVPGAGVPGAGVPGAGVPGAGVPGAGVPGAGVPGAGVPGAGVPGAGVPGAGVPGAGVPGAGVPGAGVPGAGVPGAGVPGAGVPGAGVPGAGVPGAGVPGAGVPGAGVPGAGVPGAGVPGAGVPGAGVPGAGVPGAGVPGAGVPGAGVPGAGVPGAGVPGAGVPGAGVPGAGVPGAGVPGAGVPGAGVPGAGVPGAGVPGAGVPGAGVPGAGVPGAGVPGAGVPGAGVPGAGVPGAGVPGAGVPGAGVPGAGVPGAGVPGAGVPGAGVPGAGVPGAGVPGAGVPGAGVPGAGVPGAGVPGAGVPGAGVPGAGVPGAGVPGAGVPGAGVPGAGVPGAGVPGAGVPGAGVPGAGVPGAGVPGAGVPGAGVPGAGVPGAGVPGAGVPGAGVPGAGVPGAGVPGAGVPGAGVPGAGVPGAGVPGAGVPGAGVPGAGVPGAGVPGAGVPGAGVPGAGVPGAGVPGAGVPGAGVPGAGVPGAGVPGAGVPGAGVPGAGVPGAGVPGAGVPGAGVPGAGVPGAGVPGAGVPGAGVPGAGVPGAGVPGAGVPGAGVPGAGVPGAGVPGAGVPGAGVPGAGVPGAGVPGAGVPGAGVPGAGVPGAGVPGAGVPGAGVPGAGCGGCGGCGGCGGCGGCGGCGGCGG
# Tests used:
# C26 tumors = assay: Tumor regression and survival, C26 colon cancer model; format: in vivo, Balb/C mice
# Method: Cell culture and tumor inoculation.
# Tumor regression and survival. […] Tumor size and body weight were monitored over a span of two months. Tumor volume was calculated as follows: Volume [mm^3]=length×width 2×π/6. Mice with a tumor volume greater 1000 mm^3 or body weight loss greater than 15% were euthanized.
# [1] = Dynamic and static light scattering; format: physicochemical; details: for Rh / Nagg / Rg: PBS; for Nagg / Rg: SLS
# Method: Light Scattering. Dynamic and static light scattering measurements were performed using an ALV/CGS-3 goniometer system (Germany). […] To study the effect of albumin binding on micellar self-assembly, mouse albumin was added to the samples at 1:1 albumin-CP molar ratio in PBS. Measurements were obtained at 25° C. and 37° C. for angles between 30-150° at 5° increments with each angle consisting of 3 runs and 10 s each at each run. Hydrodynamic radius (Rh) was determined by dynamic light scattering. The radius of gyration (Rg) and the average molecular weight of the particle (MW) were calculated from the slope and intercept of a partial Zimm plot, respectively, using ALV/Dynamic and Static FIT and PLOT software and according. The micelle aggregation number Nagg, or the number of polypeptide chains per nanoparticle, was calculated by dividing the micelle molecular weight by the molecular weight of the polypeptide monomer.
# Size and morphology of CP conjugated micelles. The radius and the aggregation number of the self-assembled micelles were determined, in the presence and absence of albumin, by dynamic and static light scattering at 37° C. using an ALV/CGS-3 goniometer system (Germany). Freeze fracture electron microscopy was performed to visualize the micelles and estimate their radius and morphology.
# Canine pharmacokinetics = details: dogs
# Description: Canine pharmacokinetics and toxicities. […] All procedures and protocols involving care, handling, and dosing for this study were reviewed and approved by the Institutional Animal Care and Use Committee (IACUC) at North Carolina State University College of Veterinary Medicine, which is an AAALAC-accredited facility. The animals' health status were monitored daily by the animal technicians and veterinary staff, paying particular attention for signs of gastrointestinal toxicities including vomiting, diarrhea, lethargy, and inappetence. If noted, supportive care was provided. […] 2 mL blood samples were drawn from jugular vein at 40 s, 15 and 30 min, 2, 4, 8, 24, 48, and 72 h after injection, diluted into 400 μL heparinized PBS (1000 UmL^−1). Sample processing and analysis were performed as with murine pharmacokinetics studies.
# [2] = cephalic vein, 27 DOX Equiv/m^−2 BSA or 0.9 mg DOX Equiv/kg BW
molecule,measurement,setting,value
B1,tumor bearing mice that survived 60 days after treatment,C26 tumors; DOX equivalent dose of 20 mg/kg BW,50%
same,tumor growth (in words),"C26 tumors; mouse C26 colon cancer model, single treatment on day 0",significantly slower
same,ρ = Rg/Rh,[1]; 22 ° C.,0.62
same,Rh,"[1]; 22 ° C., DLS",59.0 nm and 59.00 nm
same,Nagg,[1]; 22 ° C.,34.97
same,Rg,[1]; 22 ° C.,36.95 nm
same,ρ = Rg/Rh,[1]; 37 ° C.,0.766
same,Rh,"[1]; 37 ° C., DLS",45.63 nm
same,Nagg,[1]; 37 ° C.,42.04
same,Rg,[1]; 37 ° C.,34.97 nm
same,nanoparticle formation (in words),[1]; DLS,form nanoparticles
same,aggregation (in words),[1]; body temperature (37° C.),remain aggregate-free
same,aggregation (in words),[1]; room temperature (25° C.),Neither ABDN-CP-DOX nor ABDH-CP-DOX conjugates aggregate
same,"AUC, fold larger than that of CP-DOX",Canine pharmacokinetics,six-fold
same,"plasma half-life, fold greater than that of CP-DOX",Canine pharmacokinetics,three-fold
same,Apparent distribution volume VD,Canine pharmacokinetics; [2],0.02 ± 0.00 mL/g
same,Distribution half-life β t1/2,Canine pharmacokinetics; [2],1.705 ± 0.822 h
same,Elimination rate constant kg,Canine pharmacokinetics; [2],0.02 ± 0.00 h⁻¹
same,Plasma clearance CL,Canine pharmacokinetics; [2],0.0003 ± 0.0000 mL/h/g
same,Plasma to tissue rate constant kpt,Canine pharmacokinetics; [2],0.06 ± 0.03 h⁻¹
same,Tissue to plasma rate constant ktp,Canine pharmacokinetics; [2],0.34 ± 0.17 h⁻¹
same,Elimination half-life α t1/2,"Canine pharmacokinetics; cephalic vein, 27 DOX Equiv/m^−2 BSA or 0.9 mg DOX Equiv/kg BW, plasma DOX",30.8 ± 2.0 h
